Reference: US20250051443A1 (NATIONAL RESEARCH COUNCIL OF CANADA, published 2025)

Experiments:
[1] = target: T1, human CD3 (human, UniProt P07766 23-207; P09693 23-182; P04234 22-171); experiment: cell-based or functional assay
[2] = target: T1, human CD3; experiment: cell-based or functional assay; remark: listed apart in the source
[3] = target: T1, human CD3; experiment: flow cytometry, hybridoma supernatant on CD3+ Jurkat cells
How it was run: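 Hybridoma supernatants stained onto CD3+ Jurkat T-cells and analysed by flow cytometry; specific binding taken as mean fluorescence intensity increase over CD3-negative J.RT3-T3.5 cells. Mouse IgG and anti-GFP supernatant served as negative controls, AF488-labelled OKT3 as positive control.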

[4] = target: T1, human CD3; experiment: apparent KD (KDapp), flow cytometry titration on Jurkat cells
How it was run: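 Jurkat cells incubated 2 h on ice with 1/3 serial dilutions of purified mouse mAbs from 300 nM, then FITC anti-mouse Fc F(ab′)2 for 1 h. Binding read by flow cytometry on 2,000 viable single cells, with propidium iodide exclusion.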

[5] = target: T1, human CD3; experiment: flow competition on Jurkat, 100 nM unlabeled mAb; competitor AF488-SK7 1.5 nM
How it was run: (§1)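 Jurkat cells incubated with a fixed concentration of AF488-labeled anti-CD3 mAb plus 100 nM unlabeled mAb, with competition read by flow cytometry as impaired labeled-mAb binding. In-house AF488-OKT3 mIgG2b was desalted and checked for integrity by UPLC-SEC.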

[6] = target: T1, human CD3; experiment: flow competition on Jurkat, 100 nM unlabeled mAb; competitor AF488-UCHT1 5 nM
How it was run: as §1

[7] = target: T1, human CD3; experiment: apparent KD (KDapp), flow cytometry titration on purified primary human T cells
How it was run: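 Freshly isolated human T cells from PBMCs (negative pan-T selection), 1×10⁵ per test, stained 2 h at 4 °C with eight-point mAb dilutions from 300 or 100 nM, then APC anti-mouse IgG secondary 30 min. Background-subtracted flow MFI fitted by one-site specific binding with Hill slope for KDapp.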

[8] = target: T1, human CD3; experiment: flow competition on Jurkat, 100 nM unlabeled mAb; competitor AF488-SP34.2 20 nM
How it was run: as §1

[9] = target: T1, human CD3; experiment: flow competition on Jurkat, 100 nM unlabeled mAb; competitor AF488-OKT-3 mIgG2b 1.5 nM
How it was run: as §1

B1: F332-7C9 (antibody, mouse IgG2a, V domains shown)
VH: QVQLQQSGPELVKPGASVRISCKASGYTFTSHYLHWVKQRPGQGFEWIGWIYPGDGNTRYNEKFKDRATLTADKSSSTAYLHLSSLTSEDSAVYFCARDAGYYFDYWGQGTTLAVSS
VL: DIVMSQSPSSLAVSAGEKVTMSCKSSQSLLNSRTRKNYLAWYQQKPGQSLKVLIYWASTRESGVPDRFTGSGSGTDFTLTISSVQAEDLAVYYCKQSYSLRTFGGGTKLEIK
notes: also called F332-7C9-2; F332-7C9 (5C7, 7D10)
For B1, the “% max ref. OKT3 (dTomato activation)” value [1] was 91%, the “EC50 of dTomato induction (CD69 promoter), Jurkat-CD69-dTomato cells, 24 h” value [1] was 0.24 µg/mL and the “IC50, indirect ADC surrogate growth inhibition (anti-mouse-DM1) on Jurkat cells” value [2] was 0.045 nM. For the same binder, the “Span, indirect ADC surrogate growth inhibition on Jurkat cells” value [2] was 96%, the MFI [3] was 285 MFI and the Kd [4] was 0.5 nM. For the same binder, the “% residual fluorescence of labeled mAb” value [5] was 42%, the “% residual fluorescence of labeled mAb” value [6] was 68% and the Kd [7] was 0.16 nM. The “% residual fluorescence of labeled mAb” value [8] was 9% and the “% residual fluorescence of labeled mAb” value [9] was 82%.
